Experimental data taken from patent publication US20210284747A1 (CAPELLA BIOSCIENCE, published 2021).

Experiments:
[1] = biological target: LIGHT without residues 81-84, stably expressed on EL4 cells (EL4-NC-LIGHT); test: cell-based or functional assay
[2] = biological target: T1, Human LIGHT stably expressed on EL4 cells (EL4-LIGHT) (human, UniProt O43557 1-240); test: flow cytometry, EL4-LIGHT cells
T1 construct: whole, on cells; also called membrane LIGHT
Protocol: The EC50 of the 7 mAbs were calculated from binding to EL4-LIGHT cells (FIG. 1). […] Non-linear regression analysis was performed to determine the functional binding affinity measurement or EC50 for each mAb. A range of functional affinities was observed.

[3] = biological target: Full length LIGHT G188A on HEK293FF cells (Homo sapiens (Human), UniProt O43557 1-240); test: flow cytometry, HEK293FF, mAb at EC50
[4] = biological target: Full length LIGHT R189A on HEK293FF cells (Homo sapiens (Human), UniProt O43557 1-240); test: flow cytometry, HEK293FF, mAb at EC50
[5] = biological target: Full length LIGHT A190S on HEK293FF cells (Homo sapiens (Human), UniProt O43557 1-240); test: flow cytometry, HEK293FF, mAb at EC50
[6] = biological target: Full length LIGHT T191A on HEK293FF cells (Homo sapiens (Human), UniProt O43557 1-240); test: flow cytometry, HEK293FF, mAb at EC50
[7] = biological target: Full length LIGHT S192A on HEK293FF cells (Homo sapiens (Human), UniProt O43557 1-240); test: flow cytometry, HEK293FF, mAb at EC50
[8] = biological target: Full length LIGHT S193A on HEK293FF cells (Homo sapiens (Human), UniProt O43557 1-240); test: flow cytometry, HEK293FF, mAb at EC50
[9] = biological target: Full length LIGHT S194A on HEK293FF cells (Homo sapiens (Human), UniProt O43557 1-240); test: flow cytometry, HEK293FF, mAb at EC50
[10] = biological target: Full length LIGHT R195A on HEK293FF cells (Homo sapiens (Human), UniProt O43557 1-240); test: flow cytometry, HEK293FF, mAb at EC50
[11] = biological target: Full length LIGHT V196A on HEK293FF cells (Homo sapiens (Human), UniProt O43557 1-240); test: flow cytometry, HEK293FF, mAb at EC50
[12] = biological target: Full length LIGHT W197A on HEK293FF cells (Homo sapiens (Human), UniProt O43557 1-240); test: flow cytometry, HEK293FF, mAb at EC50
[13] = biological target: Full length LIGHT W198A on HEK293FF cells (Homo sapiens (Human), UniProt O43557 1-240); test: flow cytometry, HEK293FF, mAb at EC50
[14] = biological target: T1, Human LIGHT stably expressed on EL4 …; test: flow cytometry, EL4-LIGHT cells, against F19 and F23
[15] = biological target: T2, Human LIGHT-32L, on II23 cells (human, UniProt O43557 1-240); test: flow cytometry on II23-LIGHT 32L cells, 4 ug mAb in 100 uL, goat anti-human Fc gamma-PE; signal as % of the commercial anti-LIGHT-PE
T2 construct: also called II23-LIGHT 32L
T2 chain: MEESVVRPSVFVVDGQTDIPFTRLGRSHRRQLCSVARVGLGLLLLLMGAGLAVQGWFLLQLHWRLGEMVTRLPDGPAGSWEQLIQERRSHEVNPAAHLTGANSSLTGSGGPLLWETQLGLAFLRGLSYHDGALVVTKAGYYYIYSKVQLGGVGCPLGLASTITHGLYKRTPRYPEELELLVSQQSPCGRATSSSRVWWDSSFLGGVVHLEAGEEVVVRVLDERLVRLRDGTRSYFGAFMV
Method in brief: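 Cells blocked with anti-CD16/CD32, then stained 30 min at room temperature with 4 ug mAb per 100 uL, followed by 1:100 goat anti-human Fcγ-PE at 4° C. for 30 min. After paraformaldehyde fixation, signal read by flow cytometry.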

Sequence of Full length LIGHT S194A on HEK293FF cells (O43557 whole entry S194A): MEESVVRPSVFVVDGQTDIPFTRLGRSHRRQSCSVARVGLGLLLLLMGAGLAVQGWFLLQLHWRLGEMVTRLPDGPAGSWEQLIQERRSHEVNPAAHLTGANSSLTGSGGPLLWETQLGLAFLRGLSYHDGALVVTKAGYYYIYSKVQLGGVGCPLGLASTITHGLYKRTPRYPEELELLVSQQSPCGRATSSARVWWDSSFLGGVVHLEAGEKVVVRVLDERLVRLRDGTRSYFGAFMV
T1 sequence (O43557 whole entry): as the sequence (O43557 whole entry S194A) above, with A194S counted along it
Sequence of Full length LIGHT T191A on HEK293FF cells (O43557 whole entry T191A): as the sequence (O43557 whole entry S194A) above, with T191A, A194S counted along it
Sequence of Full length LIGHT R189A on HEK293FF cells (O43557 whole entry R189A): as the sequence (O43557 whole entry S194A) above, with R189A, A194S counted along it
Sequence of Full length LIGHT G188A on HEK293FF cells (O43557 whole entry G188A): as the sequence (O43557 whole entry S194A) above, with G188A, A194S counted along it
Sequence of Full length LIGHT S192A on HEK293FF cells (O43557 whole entry S192A): as the sequence (O43557 whole entry S194A) above, with S192A, A194S counted along it
Sequence of Full length LIGHT W197A on HEK293FF cells (O43557 whole entry W197A): as the sequence (O43557 whole entry S194A) above, with A194S, W197A counted along it
Sequence of Full length LIGHT R195A on HEK293FF cells (O43557 whole entry R195A): as the sequence (O43557 whole entry S194A) above, with A194S, R195A counted along it
Sequence of Full length LIGHT A190S on HEK293FF cells (O43557 whole entry A190S): as the sequence (O43557 whole entry S194A) above, with A190S, A194S counted along it
Sequence of Full length LIGHT W198A on HEK293FF cells (O43557 whole entry W198A): as the sequence (O43557 whole entry S194A) above, with A194S, W198A counted along it

Row | Binder | IC50, inhibition of IL-8 secretion, HT-29 + EL4-NC-LIGHT cells [1] [nM] | EC50 [2] [nM] | % of WT binding [3] [%] | % of WT binding [4] [%] | % of WT binding [5] [%] | % of WT binding [6] [%] | % of WT binding [7] [%] | % of WT binding [8] [%] | % of WT binding [9] [%] | % of WT binding [10] [%] | % of WT binding [11] [%] | % of WT binding [12] [%] | % of WT binding [13] [%] | binding ratio, mAb to LIGHT trimer [14] [mAb per LIGHT trimer] | binding result [15]
1 | 3B04 chimeric IgG4 mAb (antibody, V domains shown, also called Parental 3B04) VH: QVQLQQPGAELVRPGASVTLSCKASGYTFTDYEMHWVKQTPVHGLEWIGEIDPETGDTAYSQKFKGKATLTADKSSSTAYMEFRSLTSEDSAVYYCSRETDYFFDYWGQGTTLTVSS VL: DIQMTQTPASLSASVGETVTITCGASENIYGALNWYQRKQGKSPQLLIYGATNLADGMSSRFSGSGSGRQYSLKISSLHPDDFATYYCQNVLTTPWTFGGGTKLEIK | 0.2 | 0.095 | 6 | 0 | 68 | 2 | 88 | 0 | 0 | 1 | 80 | 0 | 81 | 1 | binds
2 | 3D12 chimeric IgG4 mAb (antibody, V domains shown, Chimeric human IgG4 (S-to-P, L-to-E) with human CL, as m1; also called Parental 3D12; 03D12) VH: QVQLQQPGAELVRPGASVTLSCKASDYTFTDSEIHWVKQTPVHGLEWIGEIDPETGGTAYNQKFKGKATLTADKSSSTAYMELRSLTSEDSAVYYCSRETDYFFDYWGQGTTLTVSS VL: DIQMTQSPASLSASVGETVTITCGASENIYGALNWYQRKQGKSPQLLIYGATNLADGMSSRFSGSGSGRQYSLKISSLHPDDVATYYCQNVLSTPWTFGGGTKLEIK | 0.1 | 0.07 | 20 | 1 | 82 | 8 | 84 | 0 | 2 | 25 | 70 | 1 | 83 | 1 | binds
